Assays:
[1] = molecular target: LacI-SREBP2 fusion protein encoded by pCMV-ISRP (human (SREBP2 portion))
[2] = molecular target: APP-LacI fusion protein encoded by pCMV-APPI (Artificial Sequence)

| Substance | luciferase activity in the repressor release assay (pRSVO-luc reporter, CHO-K1 cells) (fold reduction) [1] | luciferase activity in the repressor release assay (pRSVO-luc reporter, CHO-K1 cells) (fold reduction) [2] |
| --- | --- | --- |
| Site-2 protease (S2P) (enzyme) | 100 |  |
| γ-secretase (enzyme) |  | 35 |

Source: patent publication US6333167
